Test results published in the RNAGym collection of RNA variant scans (doi:10.1073/pnas.2313332121).
Fewer inactive variants are shown than the library holds.

B1: TPR 5TU (parent)
chain: GGAUCUUCUCGAUCUAACAAAAAAGACAAAUCUGCCACAAAGCUUGAGAGCAUCUUCGGAUGCAGAGGCGGCAGCCUUCGGUGGCGCGAUAGCGCCAACGUUCUCAACUAUGACACGCAAAACGCGUGCUCCGUUGAAUGGAGUUUAUCAUG

Variants of: B1
Experiment: polymerase ribozyme fitness, log enrichment relative to wild type (log ratio); higher = more active; in vitro selection for triplet polymerase activity
Summary of the method: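 For each subunit of a heterodimeric triplet polymerase ribozyme, a mutant library was built by PCR and transcribed, then taken through a single in vitro selection round in triplicate. Selection involved annealing to a biotinylated primer, the partner subunit and triplets, incubation frozen at −7 °C, gel excision of extended constructs, capture on streptavidin beads and RT-PCR. Genotypes were retained after Illumina sequencing of inputs and outputs only with ≥10 input reads and ≥1 read in each output. Fitness is defined as the logarithm of a genotype's enrichment relative to wild-type enrichment, using inverse-variance-weighted averages across replicates, with the logarithm taken to base 2.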

Variant | polymerase ribozyme fitness (log ratio)
GGAUCUUCUCGAUCUAACAAAAAAGACAAAUCUGCCACAAUGCUUGAGAGCAUCUUCGGAUGCAGAGGCGGCAGCUUUCGGUGGCGCCAUAGCGCCAACGUUCUCAACUAUGACACGCAAAACGCGUGCCCCGUUGAAUGGAGUUUAUCAUG [A41U C76U G88C U130C] | ≤ -4.2
GGAUCUUCUCGAUCUAACAAAAAAGACAAAUCUGCCACAAUGCUUGAGAGCAUCUUCGGAUGCAGAGGCGGCAGCCUUCGGUGACGCGAUAGCGCUAACGUUCUCACCUAUGACACGCAAAACGCGUGCUCCGUUGAAUGGAGUUUCUCAUG [A41U G84A C96U A107C A147C] | ≤ -4.2
GGAUCUUCUCGAUCUAACAAAAAAGACAAAUCUGCCACAAUGCUUGAGAUCAUCUUCGGAUGCUGAGGCGGCAGCCUUCGGUGGCGCGAUAGCGCCAACGUUCUCAACUAUGACACGGAAAACGCGUGCUCCGUUGAAUGGAGUUUAUCCUG [A41U G50U A64U C118G A150C] | ≤ -4.2
GGAUCUUCUCGAUCUAACAAAAAAGACAAAUCUGCCACAAUGCUUGAGAGCAUCUUCGGAUGCAGAGGCGGCAGCCUUCGGUGGCGCGAUAGCGCAAACGUUCUAAACUAUGACACUCAAAACGCGUGCUCCGUUGAAUGGAGGUUAUCAUG [A41U C96A C105A G117U U144G] | ≤ -4.2
GGAUCUUCUCGAUCUAACAAAAAAGACAAAUCUGCCACAAUGCUUGAGAGCAUCUUCGGAUGCAGAGGCGGCAGCCUUCGGUUGCGCGAUAGCGCCAACGUUCUCAACUAUGACACGCAAAACGCGUGCUCCGUUGAAUGGAGUUUAUCUUG [A41U G83U A150U] | -1.02
GGAUCUUCUCGAUCUAACAAAAAAGACAAAUCUGCCACAAUGCUUGAGAGCAUCUUCGGAUGCAGAGGCGGCAGCCUUCGGUCGCGCGAUAGCGCCAACGUUCUCAACUAUGACACGCAAAACGCAUGCUCCGUUGAAUGGAGUUUAUCAUG [A41U G83C G126A] | -2.3
GGAUCUUCUCGAUCUAACAAAAAAGACAAAUCUGCCACAAUGCUUGAGAGCAUCUUCGGAUGCAGAGGCGGCAGCCUUCGGUGGUGCGAUUGCGCCAACGUUCUCAUCUAUGACACGCAAAACGCGUGCUCCGUUGAAUGGAGUUUAUCAUG [A41U C85U A91U A107U] | ≤ -4.2
GGAUCUUCUCGAUCUAACAAAAAAGACAAAUCUGCCACAAUGCUUGAGAGCAUCUUCGGAUGCAGAGGCGGCAGCCUUCGGUGGAGCGAUAGCGCCAGCGUUCUCAACUAUGACACGCAAAUCGCGUGCUCCGUUGAAUGGAGUUUAUCAUU [A41U C85A A98G A122U G152U] | ≤ -4.2
GGAUCUUCUCGAUCUAACAAAAAAGACAAAUCUGCCACAAUGCUUUAGAGCUUCUUCGGAUGCAGAGGCGGCAGCCUUCGGUGGCGCGAUAGCGCCAACGUUCUCAACUAUGACACGCAAAACGCGUGCUCCGUUGAAUGGAGUUUAUCAUG [A41U G46U A52U] | -4.03
GGAUCUUCUCGAUCUAACAAAAAAGACAAAUCUGCCACAAUGCUUGAGAGCAUCUUCGGAUGCAGAGGCGGCAGCCUUCGGUGGCGCGAUAGCGCCAACGUUGUCAACUAUGGCACGCAAAACGAGUGCUCCGUUGAAUGGAGUUUAUCAUG [A41U C103G A113G C125A] | ≤ -4.2
GGAUCUUCUCGAUCUAACAAAAAAGACAAAUCUGCCACAAUGCUUGAGAGCAUCUUCGGAUGCAGAGGCGGCAGCCUUCGGUGGCGAGAUAGCGCCAACGUUCUCAACUAUGACACGCACAACGCGUGCUCCGUUGAACGGUGUUUAUCAUG [A41U C87A A120C U139C A142U] | ≤ -4.2
GGAUCUUCUCGAUCUAACAAAAAAGACAAAUCUGCCACAAUGCUUGAGAACAUCUUCGGAUGCAGAGGCGGCAGCCUUCGGUGGCGCGAUAGCGCCAACGUUCUCAACUAUGACACGCAAAACGCGUGCUCCGUUGAAUGGAGUUUAUCAUG [A41U G50A] | -2.68
GGAUCUUCUCGAUCUAACAAAAAAGACAAAUCUGCCACAAUGCUUGAGAGCAUCUUCGGAUGCAGAGGCGGCAGCCUUCGGUAGCGCGAUAGCGCCAACGUUCUCAACUAUGACACGCAAAACGCGUGCUCCGUUGAAUGGAGUUUAUCUUG [A41U G83A A150U] | -0.63
GGAUCUUCUCGAUCUAACAAAAAAGACAAAUCUGCCACAAUGCUUGAGAGCAUCUUCGGAUGCAGAGGCGGCAGCCUUCGGUGGCGCGAUAGAGCCAACGUUCUCAACUAUGACACGCAAAACGCGUGCUCCGUUGAAUGGAGUUUAUCAUG [A41U C93A] | -3.19
GGAUCUUCUCGAUCUAACAAAAAAGACAAAUCUGCCACAAUGCUUGAGAGCAUCUUCGGAUGCAGAGGCGGCAGCCUUCCGUGGCGCUAUAGCGCCAACGUUAUCAGCUAUGACACGCAAAACGCGUGCUCCGUUGAAUGGAGUUUAUCAUG [A41U G80C G88U C103A A107G] | ≤ -4.2
GGAUCUUCUCGAUCUAACAAAAAAGACAAAUCUGCCACAAUGCUUGAGAGCAUCUUCGGAUGCAGAGGCGGCAGCCUUCGGUGGCGUGAUAGCGCCAACGUUCUCAACUAUGACACGCAAAACGCGUGCUCCGUUGUAUGGAUUUUAUCAUG [A41U C87U A137U G143U] | ≤ -4.2
GGAUCUUCUCGAUCUAACAAAAAAGACAAAUCUGCCACAAUGCUUGAGAGCAUCUUCGAAUGCAGAGGCGGCGGCCUUCGGUGGCGCGUUAGGGCCAACGUUCUCAGCUAUGACACGCAAAACGCGUGCUCCGUUGAAUGGAGUUUAUCAUG [A41U G59A A73G A89U C93G A107G] | ≤ -4.2
GGAUCUUCUCGAUCUAACAAAAAAGACAAAUCUGCCACAAUGCUUGAGAGCAUCUUCGGAUGUAGAGGCGGCAGCCUUCGGUGGCGCGAUAGCGCCAACGUCCUCAACUAUGACACGCAAAACGCGUGCUCCGUUGAAUGGAGUUUAUCAUG [A41U C63U U102C] | -3.6
GGAUCUUCUCGAUCUAACAAAAAAGACAAAUCUGCCACAAUGCUUGAGAGCAUCUUCGGAUGCAGAGGCGGCAGCCUUCGGUUGCGCGAGAGGGCCAACGUUCUCUACUAUGACACGCAAAACGCGUGCUCCGUUGAAUGGAGUUUAUCAUG [A41U G83U U90G C93G A106U] | ≤ -4.2
